Experimental data reported in article PMC8636100, “Peptibody Based on FGFR1-Binding Peptides From the FGF4 Sequence as a Cancer-Targeting Agent” (Frontiers in Pharmacology, 2021).
No end group written: not given here.

T1: extracellular domain (ECD) of FGFR1 fused to the Fc domain of human IgG1 (UniProt P11362 22-376, HiLyte488 dye (labelled form, used for the membrane overlay of FGFs and the PepSpot assay))
T1 construct: FGFR1 (fibroblast growth factor receptor 1), extracellular domain; Unlabelled in the pull-down (held on Protein A resin) and in SPR (amine-coupled); also called FGFR1-Fc; source: recombinant, produced as described previously (Sokolowska-Wedzina et al., 2014)
T1 sequence (looked up): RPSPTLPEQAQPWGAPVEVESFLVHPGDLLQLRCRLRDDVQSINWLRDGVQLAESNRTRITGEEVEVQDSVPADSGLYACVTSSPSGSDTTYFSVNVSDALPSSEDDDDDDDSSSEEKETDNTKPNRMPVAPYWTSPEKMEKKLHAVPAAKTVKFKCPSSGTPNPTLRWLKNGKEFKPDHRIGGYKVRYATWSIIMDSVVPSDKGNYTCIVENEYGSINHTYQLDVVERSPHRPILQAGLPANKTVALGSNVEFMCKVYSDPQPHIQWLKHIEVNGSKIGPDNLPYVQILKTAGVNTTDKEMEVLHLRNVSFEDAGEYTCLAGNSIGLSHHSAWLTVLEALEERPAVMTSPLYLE

B1: peptibodyF4_1 (Fc fusion)
chain: GIALSKNGKTKKGNRVSPTMKVTHFLPRL
notes: additional glycine residue as a spacer between the Fc domain and the targeting peptide; peptide F4_1, FGF4 residues 179-206; Peptide fused at the C-terminus of the Fc domain of human IgG1 (vector pLEV113); Labelled with DyLite650 for flow cytometry; not shown: Fc (human IgG1), N-terminal, kept
B2: peptibodyF4_3 (Fc fusion)
chain: GLRRLYCNVGIGFHLQ
notes: additional glycine residue as a spacer between the Fc domain and the targeting peptide; peptide F4_3, FGF4 residues 83-97; Peptide fused at the C-terminus of the Fc domain of human IgG1 (vector pLEV113); not shown: Fc (human IgG1), N-terminal, kept
B3: FGF4 (ligand, UniProt P08620 31-206, looked up)
chain: APTAPNGTLEAELERRWESLVALSLARLPVAAQPKEAAVQSGAGDYLLGIKRLRRLYCNVGIGFHLQALPDGRIGGAHADTRDSLLELSPVERGVVSIFGVASRFFVAMSSKGKLYGSPFFTDECTFKEILLPNNYNAYESYKYPGMFIALSKNGKTKKGNRVSPTMKVTHFLPRL
notes: FGF4; Denatured by SDS-PAGE and held on PVDF in the overlay; native analyte in SPR; also called recombinant FGF4; fibroblast growth factor 4; source: recombinant, provided by Marta Minkiewicz and Martyna Sochacka from Protein Engineering Group
B4: PepSpot peptide no. 15 of FGF4 (peptide)
peptide: SRFFVAMSSKGKLYG
modifications: also: covalently bound to cellulose-β-alanine membrane
notes: also called peptide 15; source: synthetic peptide on cellulose membrane (PepSpot, JPT, Berlin)
B5: PepSpot peptide no. 19 of FGF4 (peptide)
peptide: KYPGMFIALSKNGKT
modifications: also: covalently bound to cellulose-β-alanine membrane
notes: also called peptide 19; source: synthetic peptide on cellulose membrane (PepSpot, JPT, Berlin)
B6: PepSpot peptide no. 20 of FGF4 (peptide)
peptide: KNGKTKKGNRVSPTM
modifications: also: covalently bound to cellulose-β-alanine membrane
notes: source: synthetic peptide on cellulose membrane (PepSpot, JPT, Berlin)
B7: PepSpot peptide no. 21 of FGF4 (peptide)
peptide: RVSPTMKVTHFLPRL
modifications: also: covalently bound to cellulose-β-alanine membrane
notes: also called peptide 21; source: synthetic peptide on cellulose membrane (PepSpot, JPT, Berlin)
B8: PepSpot peptide no. 10 of FGF4 (peptide)
peptide: LRRLYCNVGIGFHLQ
modifications: also: covalently bound to cellulose-β-alanine membrane
notes: also called peptide F4_3; 4_3; source: synthetic peptide on cellulose membrane (PepSpot, JPT, Berlin)
B9: chymotryptic peptide of FGF4, region 179–206 (peptide)
peptide: IALSKNGKTKKGNRVSPTMKVTHFLPRL
notes: FGF4 residues 179-206; also called peptide F4_1; 4_1; source: digest of recombinant FGF4 with immobilized bovine chymotrypsin
B10: chymotryptic peptide of FGF4, region 136–150 (peptide)
peptide: FVAMSSKGKLYGSPF
notes: FGF4 residues 136-150; also called peptide F4_2; 4_2; source: digest of recombinant FGF4 with immobilized bovine chymotrypsin

target: T1, extracellular domain (ECD) of FGFR1 …; experiment: SPR; Biacore 3000, 25°C, PBS with 0.05% Tween20, 0.1% BSA, 0.02% NaN3, pH 7.4; FGFR1 ECD-Fc amine-coupled on CM5 at 8800 RU; peptibodies 0.15-4.8 μM or FGF4 75-600 nM injected at 30 μl/min; steady-state affinity analysis for the peptibodies; details: both partners purified

Binder	Kd [nM]
B1	2990
B2	1090
B3	65.7

target: T1, extracellular domain (ECD) of FGFR1 …; experiment: peptide or protein array; PepSpot: 15-residue peptides spanning FGF4 covalently bound to a cellulose membrane; blocked with 3% BSA in TBS-T; probed with HiLyte488-labelled FGFR1-Fc or Fc domain (0.1 µg/ml in blocking buffer) overnight at 4°C; details: both partners purified

Binder	binding result
B4	binds
B5	binds
B6	binds
B7	binds
B8	binds

target: T1, extracellular domain (ECD) of FGFR1 …; experiment: affinity purification with mass spectrometry; chymotryptic peptides of FGF4 incubated 1 h at 4°C with ECD_FGFR1-Fc or, in parallel, Fc domain immobilized on rProtein A Fast Flow resin; washed (0.1 M NaCl, phosphate); eluted with 0.1 M sodium citrate pH 3.5; peptides identified by MS; details: both partners purified

Binder	binding result
B9	binds
B10	binds
